# Reference: patent US20100292442A1 (Amgen, published 2010)
# Where a chain is given by its changes, count along the chain named.
# B1: AMH14/AML14 (antibody, V domains shown)
# VH: QVQLVQSGAEVKKPGASVKVSCKASGYTFTRYGISWVRQAPGQGLEWMGWISTYSGNTNYAQKLQGRVTMTTDTSTSTAYMELRSLRSDDTAVYYCARRQLYFDYWGQGTLVTVSS
# VL: EIVMTQSPATLSVSPGERATLSCRASQSVSSNLAWFQQKPGQAPRPLIYDASTRATGVPARFSGSGSGTDFTLTISSLQSEDFAVYYCQQYDNWPLTFGGGTKVEIK
# notes: Fully human mAb from IgG2 XenoMouse hybridomas; also called AM-14
# B2: AMH12/AML12 (antibody, V domains shown)
# VH: B1 VH with F29L, R31S, S55K, R99K, Y102V
# VL: B1 VL with V29I, N32S, F36Y, P46L, D50G, V58I, D70E, D82N
# notes: Fully human mAb from IgG2 XenoMouse hybridomas; also called AM-12
# B3: AMH17/AML17 (antibody, V domains shown)
# VH: B1 VH with S17A, S25T, F29L, R31S, T53A, N59K, R99K, Y102V
# VL: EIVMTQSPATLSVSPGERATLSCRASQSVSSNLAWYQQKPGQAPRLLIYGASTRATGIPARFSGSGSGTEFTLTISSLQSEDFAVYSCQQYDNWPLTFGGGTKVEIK
# notes: Fully human mAb from IgG2 XenoMouse hybridomas; also called AM-17
# B4: AMH16/AML16 (antibody, V domains shown)
# VH: B1 VH with R31S, T53A, S55N, N59K, A79V, R99K, Y102V
# VL: EIVMTQSPATLSVSPGERATLSCRASQSISTSLAWYQQKPGQAPRLLIYGTSTRATGIPARFSGSGSGTEFTLTISSLQSEDFAVYFCQQYDIWPLTFGGGTKVEIK
# notes: Fully human mAb from IgG2 XenoMouse hybridomas; also called AM-16
# B5: AMH7/AML7 (antibody, V domains shown)
# VH: QVQLVQSGAEVKKPGASVKVSCKASGYTLTRYGISWVRQAPGQGLEWMGWISAYNGNTNYAQKLQGRVTMTTDTSTSTAYMELRSLRSDDTAVYYCARRDYDILTGYYNGFDPWGQGTLVTVSS
# VL: DIQMTQSPSSLSASVGDRVTITCRASQGIRNDLGWYQQKPGKAPKRLIYAASSLQSGVPSRFSGSGSGTEFTLTISSLQPEDFATYYCLQHKSYPLTFGGGTKVEIK
# notes: Fully human mAb from IgG2 XenoMouse hybridomas
# B6: AMH6/AML6 (antibody, V domains shown)
# VH: B5 VH
# VL: B5 VL
# notes: as for B5
# B7: AMH8/AML8 (antibody, V domains shown)
# VH: B5 VH with Y27N, L29F, R31G, K63N
# VL: B5 VL
# notes: as for B5
# B8: AMH21/AML21 (antibody, V domains shown)
# VH: EVQLVESGGGSVQPGGSLRLSCAASGFTFSSYSMNWVRQAPGKGLEWVSIISSRSSIIHYADSVKGRFTISRDNAKNSLYLQMNSLRDEDTAVYYCARPKVGGGMDVWGQGTTVTVSS
# VL: DIQMTQSPSSLSASVGDRVTITCRASQGISNYLAWYQQKPGKFPELLIYAASTLQSGVPSRFSGSGSGTDFTLTISSLQPEDVATYYCQKYNRAPFTFGPGTKVDIK
# notes: Fully human mAb from IgG2 XenoMouse hybridomas; also called AM-21
# B9: AMH20/AML20 (antibody, V domains shown)
# VH: B8 VH with S11L, I50F, S53A, I57T, H59Y
# VL: B8 VL
# notes: Fully human mAb from IgG2 XenoMouse hybridomas; also called AM-20
# B10: AMH18/AML18 (antibody, V domains shown)
# VH: QVQLVQSGAEVKKPGASVKVSCKASGYSFTDYYMHWVRQAPGQGLEWMGWMHPNSGGTDLAQRFQGRVTMTRDTSISTAYMELSRLRSDDTAVYYCARGGYCSTLSCSFYWYFDLWGRGTLVTVSS
# VL: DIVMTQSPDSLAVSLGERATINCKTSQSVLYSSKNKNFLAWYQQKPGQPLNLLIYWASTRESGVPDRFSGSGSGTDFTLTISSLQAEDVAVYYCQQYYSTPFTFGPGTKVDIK
# notes: as for B5
# B11: AMH10/AML10 (antibody, V domains shown)
# VH: QVQLQESGPGLVKPSQTLSLTCTVSGGSISSGGYYWSWIRQHPGKGLEWIGYIYFSGSAYYNPSLKSRVAISVDTSKNQFSLKLSSVTAADTAVYYCAREYYDSSGYPDAFDIWGQGTMVTVSS
# VL: DIQMTQSPSSVSASVGDRVTITCRASQGIRSWLAWYQQKPGKAPKLLIFAASSLQSGVPSRFSGSGSGTEFTLTISSLQPEDFATYYCQQANNFPRTFGQGTKVEIK
# notes: Fully human mAb from IgG2 XenoMouse hybridomas; also called AM-10
# B12: AMH4/AML4 (antibody, V domains shown)
# VH: QVQLVESGGGVVQPGRSLRLSCAASGINFSSYGMHWVRQAPGKGLEWVAVIWYDGSNKHYADSVKGRFTISRDNSKNTLYLQMNSLRAEDTAVYYCARDTGVYWGQGTLVTVSS
# VL: not shown
# notes: as for B5
# B13: AMH11/AML11 (antibody, V domains shown)
# VH: B12 VH with A24T, N28T, H59Y, G101K, V102D
# VL: EIVMTQSPATLSVSPGERATLSCRASQSVSSNLAWYQQKPGQAPRLLIYGASTRAAGIPARFSGGGSGTAFTLTISNLQSEDFAVYYCQHYINWPKWTFGQGTKVDIK
# notes: as for B5
# B14: AMH15/AML15 (antibody, IgG2, V domains shown)
# VH: QVQLVESGGGVVQPGRSLRLSCAASGFTFSSYGMQWVRQAPGKGLEWVAVIWYDGNKKYYADSVKGRFTISRDNSKNTLYLQMNSLRAEDTAVYYCARGRVRDYYYGMDVWGQGTTVTVSS
# VL: B1 VL with A19V, T56A, V58I
# notes: Fully human mAb from IgG2 XenoMouse hybridomas; also called AM-15
# B15: AMH22/AML22 (antibody, V domains shown)
# VH: B1 VH with T53A
# VL: B1 VL with A19V, T56A, V58I
# notes: Fully human mAb from IgG2 XenoMouse hybridomas; also called AM-22
# B16: AMH5/AML5 (antibody, IgG2, V domains shown)
# VH: QVQLQESGPGLVKPSETLPLTCTVSGGSIRSYYWSWIRQPAGKGLEWIGRIYRSGNTIYNPSLKSRVTMSIDTSKNQFSLTLSSVTAADTAVYYCARENYSESSGLYYYYGMDVWGQGTTVTVSS
# VL: B5 VL with L54F, E70G, K92N, L96P, G100Q
# notes: Fully human mAb from IgG2 XenoMouse hybridomas; also called AM-5
# B17: AMH1/AML1 (antibody, V domains shown)
# VH: QVQLQESGPGLVKPSETLSLTCTVSGGSISNYYWNWIRQSPGKGLEWIGDIYYSGSTNYNPSLKSRVTISVDTSKNQFSLKLSSVTTADTAVYYCARDGELANYYGSGSYQFYYYYGMDVWGQGTTVTVSS
# VL: B5 VL with Q3L, K92N, Y94N, L96F, G100P, E105D
# notes: as for B5
# B18: AMH13/AML13 (antibody, V domains shown)
# VH: B14 VH
# VL: DIVMTQTPLSLSVTPGQPASIACKSSQSLLHSDGKTYLYWYLQKPGQPPQLLIYEVSTRFSGVPDRFSGSGSGTDFTLKISRVEAEDVGVFYCMQSIQLPLTFGGGTKVEIK
# notes: as for B5
# Molecular target: cynomolgus IL-17RA on cells (cynomolgus)
# Assay: cell-based or functional assay
row,"IC50, cynomolgous IL-17A-induced IL-6 production from JTC-12 cells",Binder
1,~1.2 nM,B1

# Molecular target: T1, huIL-17RA-FLAG-polyHis (human, UniProt Q96F46 33-320)
# T1 construct: also called wild-type IL-17RA-FLAG-polyHis; HuIL-17RA-Flag-pHis
# Assay: Luminex binning; bead huIgG control (f15) + IL-17RA [D00007 Fig. 8B]
# Description: Cross-competition studies were performed to determine IL-17RA binding characteristics of exemplary IL-17RA neutralizing antibodies. […] The method employed the Bio-Plex Workstation and software (BioRad, Hercules, Calif.), as well as reagents from Luminex® Corp. (Austin, Tex.). The manufacturers' basic protocols were followed except where noted below (see www.bio-rad.com and www.luminexcorp.com for details). […] The mouse-anti-human IgG coating was evaluated and the beads quantified by FACS. Each bead code was separately incubated with 10 ul of anti-IL-17RA antibody for 1 hour at room temperature and then washed. The beads were pooled and then dispensed to a 96-well filter plate (Millipore, Billerica, Mass., product #MSBVN1250). […] The PE-tagged monovalent antibody will detect the presence of the second mAb added to the well, but not the first mAb captured by the monovalent mouse-anti-human IgG antibody. Beads were resuspended in 120 ul PBSAT and at least 100 events/bead code were collected on the Bio-Plex workstation as per the manufacturer's recommended protocol.
row,normalized MFI,Binder
1,32,B2
2,56,B3
3,95,B4
4,123,B5
5,26,B6
6,54,B7
7,28,B8
8,50,B9
9,-5,B10
10,140,B11
11,37,B12
12,84,B13

# Molecular target: T2, cynomolgus IL-17RA on cells (cynomolgus)
# T2 construct: whole, on cells; also called CHO-cynoIL-17RA; cyno IL-17RA+ CHO cells
# Assay: FACS competition, non-clonal hybridoma supernatant; MFI of biotin-huIL-17A (competitor, 500 ng/ml) on cyno IL-17RA+ CHO cells
row,MFI,Binder
1,6 MFI,B14
2,10 MFI,B1
3,6 MFI,B8

# Molecular target: T2, cynomolgus IL-17RA on cells
# Assay: as above
# Remark: another data set of the same source
row,MFI,Binder
1,18 MFI,B15
2,9 MFI,B16
3,11 MFI,B17
4,9 MFI,B13

# Molecular target: T2, cynomolgus IL-17RA on cells
# Assay: as above
# Remark: another data set of the same source
# Description: (§1) Non-clonal hybridoma supernatants were prepared in volumes of 1-2 mls (the Ig concentrations were not determined for these supernatants). […] Anti-IL-17RA non-clonal hybridomas were selected for sub-cloning based on their performance in the CHO-IL-17RA FACS assay and HFF bioassay.
row,MFI,Binder
1,6 MFI,B18
2,6 MFI,B2
3,8 MFI,B3
4,6 MFI,B4

# Molecular target: T3, Human IL-17RA full-length expressed on the surface of cells (human, UniProt Q96F46 33-866)
# T3 construct: used here for over-expressing CHO cells (FACS) and for the native receptor on human fibroblasts (bioassays); also called IL-17RA CHO cells; CHO-huIL-17RA
# Assay: FACS competition, non-clonal hybridoma supernatant; % cells positive for biotin-huIL-17A (competitor, 500 ng/ml) on huIL-17RA+ CHO cells
# Description: as §1
row,% positive,Binder
1,1.52%,B18
2,1%,B2
3,1.75%,B3
4,1.84%,B4

# Molecular target: T3, Human IL-17RA full-length expressed on …
# Assay: FACS competition, non-clonal hybridoma supernatant; % cells positive for biotin-huIL-17A (competitor, 500 ng/ml) on huIL-17RA+ CHO cells (second % positive column)
# Description: as §1
row,% positive,Binder
1,0.89%,B18
2,1.36%,B2
3,1.23%,B3
4,0.76%,B4
